# B1: library; numbered along this chain (parent)
# chain: MAAAGGARLLRAASAVLGGPAGRWLHHAGSRAGSSGLLRNRGPGGSAEASRSLSVSARARSSSEDKITVHFINRDGETLTTKGKVGDSLLDVVVENNLDIDGFGACEGTLACSTCHLIFEDHIYEKLDAITDEENDMLDLAYGLTDRSRLGCQICLTKSMDNMTVRVPETVADARQSIDVGKTS
# Variants of: B1
# Assay: scaled log2 fold change in cell abundance, elesclomol vs control (0 = silent mean, 1 = nonsense mean) (scaled log2 ratio); higher = higher viability under elesclomol (loss of FDX1 cuproptosis function)
# Details: glucose 10 mM
# [1] = with ABC1 FDX1 KO, elesclomol 5 nM, 14 days
# [2] = with HEK293T FDX1 KO, elesclomol 40 nM, 11 days
# 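Further: variant abundance is its share of total variant reads in each endpoint sample, from next-generation sequencing of the integrated ORF PCR-amplified out of genomic DNA.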
Variant,scaled log2 fold change [1],scaled log2 fold change [2]
V92W,0.354,-0.298
V92Y,0.0368,-0.087
V92S,0.501,-0.213
V92T,-0.145,–
E95A,0.102,-0.337
E95K,0.0162,-0.042
E95R,-0.296,-0.0027
E95F,-0.339,-0.0798
E95Q,0.0772,-0.398
E95N,0.2,–
E95L,-0.168,-0.709
E95M,0.0861,-0.356
E95Y,-0.143,-0.228
E95W,0.0294,-0.33
E95V,0.0731,-0.123
E95D,0.126,0.1
E95I,0.142,-0.228
E95S,0.146,0.071
E95C,-0.0222,–
E95T,-0.37,–
E95G,-0.0448,0.982
E95P,0.178,-0.222
E95H,-0.106,-0.636
L98D,0.341,0.871

Variant,scaled log2 fold change [1],scaled log2 fold change [2]
L98N,0.309,0.504
L98K,0.356,0.0251
L98A,-0.194,-1.06
L98W,0.476,0.189
L98V,-0.0512,-0.662
L98R,0.136,0.607
L98F,-0.0232,-0.902
L98C,-0.21,-0.505
L98T,-0.168,0.331
L98P,-0.901,0.205
L98G,0.225,0.327
L98Q,0.167,-0.327
L98M,0.0485,0.18
L98I,-0.0119,-0.482
L98Y,0.000145,-0.257
L98E,0.00205,0.172
L98H,0.186,0.86
L98S,0.421,-0.0745
V94A,0.0221,0.0839
V94Y,-0.0972,0.515
V94L,0.0554,-0.336
V94F,-0.376,-0.411
V94P,0.617,0.378
V94K,-0.573,-0.482

Variant,scaled log2 fold change [1],scaled log2 fold change [2]
V94Q,0.235,-0.226
V94W,0.0681,0.96
V94D,-0.313,–
V94R,-0.258,1
V94G,-0.377,–
V94E,0.00926,-0.058
V94H,-0.328,0.317
V94T,-0.0231,–
V94C,-0.491,0.199
V94M,-0.224,1.17
V94S,-0.223,-1
V94N,-0.345,-1.27
V94I,-0.52,0.00216
N96Y,-0.25,-0.153
N96I,0.329,0.221
N96V,0.307,0.567
N96E,0.241,-0.435
N96D,0.104,0.22
N96C,-0.324,-0.592
N96W,-0.0659,-0.145
N96P,0.423,-0.187
N96L,0.0905,0.033
N96M,0.283,-0.778
N96R,0.204,-0.0627

Variant,scaled log2 fold change [1],scaled log2 fold change [2]
N96F,0.145,-0.464
N96S,-0.155,-0.272
N96T,-0.0877,-0.163
N96Q,-0.22,0.0675
N96G,0.111,0.179
N96H,0.245,–
N96K,-0.0525,-0.121
N96A,-0.307,1.03
D99A,0.0591,-1.37
N97A,0.142,0.975
N97Y,-0.364,-0.135
N97P,-0.344,-0.674
N97F,0.103,-0.943
N97W,0.133,-0.218
N97V,-0.176,-0.221
N97H,-0.355,-0.619
N97R,-0.00904,–
N97D,0.0523,-0.622
N97C,-0.382,-0.308
N97L,-0.931,–
N97E,-0.211,-1.28
N97I,0.125,-0.93
N97M,0.195,-0.11
N97S,-0.104,0.254

Variant,scaled log2 fold change [1],scaled log2 fold change [2]
N97Q,-0.273,0.204
N97G,0.132,-0.242
N97T,-0.0494,0.415
N97K,0.149,0.739
V93N,0.524,0.217
V93C,-0.0745,0.258
V93W,0.155,0.488
V93K,-0.498,–
V93D,0.877,0.496
V93A,-0.15,1.27
V93S,0.115,-0.534
V93R,0.275,0.16
V93T,-0.217,-0.372
V93P,0.924,0.209
V93F,0.266,-0.377
V93Y,-0.0809,1.12
V93G,0.574,-0.293
V93M,0.416,0.244
V93L,0.0816,0.422
V93Q,0.0948,-0.698
V93E,0.231,-0.85
V93I,0.123,-0.612
V93H,-0.124,-0.875
